US20250002577A1 (ONCORESPONSE, published 2025)

Key:
[1] = biological target: T1, human LILRB1 on cells (human, UniProt Q8NHL6 24-650); experiment: flow cytometry, HEK293-6E transfectants
T1 construct: whole, on cells; also called hLILRB1; LILRB1-expressing 721.221 cells
Protocol: (§1) To determine that the parent chimera anti LILRB2/1 antibody specifically binds to LILRB2 and LILRB1 and not to other LILRB and LILRA family members, a cross-reactivity assay was performed. Cross-reactivity was assessed by antibody binding to transiently transfected HEK293-6E cells by flow cytometry. Binding was evaluated to HEK293-6E cells transiently transfected with human LILRB-1, -2, -3, -4, and 5 plasmids (Origene, Nos. RC219949, RC217935, RC211228, RC220932, RC206516) or to cells transiently transfected with human LILRA-1, -2, -4, -5, and -6 plasmids (Origene, Nos. RC210808, RC205626, RC220452, RC212310 RC212965). […] At a concentration of 1 μg/mL, no binding of B21A1 or the humanized variants to LILRB-3, -4, or -5 was observed (Table 7). Additionally, no binding to LILRA-1, -2, -4, -5, or -6 was observed, confirming the specificity of B21A1 and its humanized variants to LILRB1 and LILRB2 (Table 8).

[2] = biological target: T2, human LILRB2 on cells (human, UniProt Q8N423 22-597); experiment: flow cytometry, HEK293-6E transfectants
T2 construct: whole, on cells; also called hLILRB2; LILRB2-HEK293T
T2 sequence (Q8N423 22-597): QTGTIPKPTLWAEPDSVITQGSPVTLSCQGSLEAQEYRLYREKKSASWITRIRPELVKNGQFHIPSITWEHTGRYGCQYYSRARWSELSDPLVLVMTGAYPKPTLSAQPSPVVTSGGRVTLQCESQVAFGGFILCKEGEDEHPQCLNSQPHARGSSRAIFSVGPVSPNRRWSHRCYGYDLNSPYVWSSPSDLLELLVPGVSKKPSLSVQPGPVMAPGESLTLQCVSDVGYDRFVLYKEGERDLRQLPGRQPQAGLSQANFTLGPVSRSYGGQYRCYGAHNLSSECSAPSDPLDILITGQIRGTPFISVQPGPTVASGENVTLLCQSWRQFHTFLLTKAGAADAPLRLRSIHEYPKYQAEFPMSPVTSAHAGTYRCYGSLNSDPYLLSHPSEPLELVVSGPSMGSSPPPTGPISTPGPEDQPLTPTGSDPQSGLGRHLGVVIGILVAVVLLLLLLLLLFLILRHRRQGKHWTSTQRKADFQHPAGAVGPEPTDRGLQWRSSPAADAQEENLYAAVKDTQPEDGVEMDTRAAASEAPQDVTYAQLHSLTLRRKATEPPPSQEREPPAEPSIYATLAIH
Protocol: as §1

[3] = biological target: T3, human LILRB3 on HEK293-6E cells (human, UniProt O75022 24-631); experiment: flow cytometry, HEK293-6E transfectants
T3 construct: whole, on cells; also called hLILRB3
T3 sequence (O75022 24-631): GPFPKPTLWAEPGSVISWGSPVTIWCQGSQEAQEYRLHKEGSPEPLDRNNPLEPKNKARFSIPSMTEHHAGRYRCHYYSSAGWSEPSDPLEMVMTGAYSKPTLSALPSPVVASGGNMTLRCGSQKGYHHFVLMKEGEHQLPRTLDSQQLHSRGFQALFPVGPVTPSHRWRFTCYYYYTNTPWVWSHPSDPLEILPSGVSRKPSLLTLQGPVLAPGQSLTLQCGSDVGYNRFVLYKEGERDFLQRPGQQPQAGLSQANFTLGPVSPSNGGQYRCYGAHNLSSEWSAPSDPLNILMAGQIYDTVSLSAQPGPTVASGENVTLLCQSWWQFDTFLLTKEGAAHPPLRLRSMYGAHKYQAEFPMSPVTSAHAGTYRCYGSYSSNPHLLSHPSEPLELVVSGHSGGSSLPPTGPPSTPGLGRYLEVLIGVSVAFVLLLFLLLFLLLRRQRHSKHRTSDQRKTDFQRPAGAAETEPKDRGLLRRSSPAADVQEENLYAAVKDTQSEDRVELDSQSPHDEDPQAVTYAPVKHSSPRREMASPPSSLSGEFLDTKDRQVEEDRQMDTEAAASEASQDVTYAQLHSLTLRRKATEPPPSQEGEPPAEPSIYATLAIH
Protocol: as §1

[4] = biological target: T4, human LILRB4 on HEK293-6E cells (human, UniProt Q8NHJ6 22-448); experiment: flow cytometry, HEK293-6E transfectants
T4 construct: whole, on cells; also called hLILRB4
Protocol: as §1

[5] = biological target: T5, human LILRB5 on HEK293-6E cells (human, UniProt O75023 24-590); experiment: flow cytometry, HEK293-6E transfectants
T5 construct: whole, on cells; also called hLILRB5
T5 sequence (O75023 24-590): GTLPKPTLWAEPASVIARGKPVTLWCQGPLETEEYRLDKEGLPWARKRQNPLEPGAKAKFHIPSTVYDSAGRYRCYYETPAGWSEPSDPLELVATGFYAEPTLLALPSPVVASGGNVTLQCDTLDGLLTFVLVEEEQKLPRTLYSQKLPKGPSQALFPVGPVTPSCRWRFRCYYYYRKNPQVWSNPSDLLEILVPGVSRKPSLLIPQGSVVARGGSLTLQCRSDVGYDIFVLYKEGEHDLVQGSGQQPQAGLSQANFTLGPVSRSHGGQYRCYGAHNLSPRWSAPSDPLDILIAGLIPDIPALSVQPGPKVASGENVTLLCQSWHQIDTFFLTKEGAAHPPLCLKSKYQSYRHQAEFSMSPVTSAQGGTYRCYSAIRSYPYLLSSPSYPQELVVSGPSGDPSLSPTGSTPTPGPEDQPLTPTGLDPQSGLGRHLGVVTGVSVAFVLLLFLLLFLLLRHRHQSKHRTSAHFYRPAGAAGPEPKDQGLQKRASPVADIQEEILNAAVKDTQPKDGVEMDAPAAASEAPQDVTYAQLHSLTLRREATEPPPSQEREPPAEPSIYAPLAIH
Protocol: as §1

[6] = biological target: T6, human LILRA1 on HEK293-6E cells (human, UniProt O75019 17-489); experiment: flow cytometry, HEK293-6E transfectants
T6 construct: whole, on cells; also called hLILRA1
T6 sequence (O75019 17-489): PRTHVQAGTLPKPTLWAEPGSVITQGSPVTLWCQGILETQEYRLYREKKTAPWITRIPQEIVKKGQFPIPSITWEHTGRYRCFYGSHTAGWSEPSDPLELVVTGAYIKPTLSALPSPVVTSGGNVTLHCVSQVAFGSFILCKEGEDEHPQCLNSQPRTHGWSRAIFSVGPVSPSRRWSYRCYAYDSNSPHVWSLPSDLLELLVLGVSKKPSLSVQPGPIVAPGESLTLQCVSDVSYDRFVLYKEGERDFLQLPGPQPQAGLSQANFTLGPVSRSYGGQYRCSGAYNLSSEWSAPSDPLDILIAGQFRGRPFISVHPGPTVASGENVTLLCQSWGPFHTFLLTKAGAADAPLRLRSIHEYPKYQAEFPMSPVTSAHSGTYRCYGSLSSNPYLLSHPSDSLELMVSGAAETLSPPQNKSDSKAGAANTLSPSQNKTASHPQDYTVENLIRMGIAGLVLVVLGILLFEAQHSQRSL
Protocol: as §1

[7] = biological target: T7, human LILRA2 on HEK293-6E cells (human, UniProt Q8N149 24-483); experiment: flow cytometry, HEK293-6E transfectants
T7 construct: whole, on cells; also called hLILRA2
T7 sequence (Q8N149 24-483): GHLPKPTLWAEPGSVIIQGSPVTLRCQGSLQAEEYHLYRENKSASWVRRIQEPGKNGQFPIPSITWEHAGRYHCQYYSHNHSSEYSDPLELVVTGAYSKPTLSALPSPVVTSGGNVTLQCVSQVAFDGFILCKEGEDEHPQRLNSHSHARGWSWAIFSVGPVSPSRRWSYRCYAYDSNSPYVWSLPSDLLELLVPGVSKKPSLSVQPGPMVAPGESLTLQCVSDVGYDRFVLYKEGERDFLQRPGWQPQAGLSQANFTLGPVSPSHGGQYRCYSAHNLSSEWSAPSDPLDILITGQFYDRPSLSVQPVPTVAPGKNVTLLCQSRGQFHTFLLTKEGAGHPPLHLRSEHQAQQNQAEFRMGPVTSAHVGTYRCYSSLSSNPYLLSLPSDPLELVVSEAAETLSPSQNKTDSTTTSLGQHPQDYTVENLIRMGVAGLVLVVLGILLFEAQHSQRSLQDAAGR
Protocol: as §1

[8] = biological target: T8, human LILRA4 on HEK293-6E cells (human, UniProt P59901 24-499); experiment: flow cytometry, HEK293-6E transfectants
T8 construct: whole, on cells; also called hLILRA4
T8 sequence (P59901 24-499): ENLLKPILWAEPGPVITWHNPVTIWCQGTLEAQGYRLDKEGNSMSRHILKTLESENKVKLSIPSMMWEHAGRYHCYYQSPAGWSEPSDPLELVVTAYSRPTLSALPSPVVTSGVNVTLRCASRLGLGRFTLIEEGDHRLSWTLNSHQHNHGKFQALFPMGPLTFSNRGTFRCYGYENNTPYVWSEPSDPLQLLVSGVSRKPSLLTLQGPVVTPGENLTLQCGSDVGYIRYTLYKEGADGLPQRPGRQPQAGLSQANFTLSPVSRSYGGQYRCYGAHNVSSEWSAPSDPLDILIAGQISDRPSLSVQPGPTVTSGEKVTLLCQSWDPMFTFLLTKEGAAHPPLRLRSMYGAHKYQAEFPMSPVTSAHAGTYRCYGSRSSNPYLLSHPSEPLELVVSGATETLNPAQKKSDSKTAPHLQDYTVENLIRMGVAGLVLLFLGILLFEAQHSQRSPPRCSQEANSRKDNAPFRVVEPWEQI
Protocol: as §1

[9] = biological target: T9, human LILRA5 on HEK293-6E cells (human, UniProt A6NI73 42-299); experiment: flow cytometry, HEK293-6E transfectants
T9 construct: whole, on cells; also called hLILRA5
T9 sequence (A6NI73 42-299): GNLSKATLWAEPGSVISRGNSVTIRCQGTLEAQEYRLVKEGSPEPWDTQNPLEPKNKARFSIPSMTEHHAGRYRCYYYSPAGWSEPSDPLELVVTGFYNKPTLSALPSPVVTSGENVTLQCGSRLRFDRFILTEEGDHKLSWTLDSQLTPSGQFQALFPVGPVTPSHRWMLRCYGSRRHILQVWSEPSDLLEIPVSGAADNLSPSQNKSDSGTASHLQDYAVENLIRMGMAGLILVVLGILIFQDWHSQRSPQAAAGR
Protocol: as §1

[10] = biological target: T10, human LILRA6 on HEK293-6E cells (human, UniProt Q6PI73 24-481); experiment: flow cytometry, HEK293-6E transfectants
T10 construct: whole, on cells; also called hLILRA6
T10 sequence (Q6PI73 24-481): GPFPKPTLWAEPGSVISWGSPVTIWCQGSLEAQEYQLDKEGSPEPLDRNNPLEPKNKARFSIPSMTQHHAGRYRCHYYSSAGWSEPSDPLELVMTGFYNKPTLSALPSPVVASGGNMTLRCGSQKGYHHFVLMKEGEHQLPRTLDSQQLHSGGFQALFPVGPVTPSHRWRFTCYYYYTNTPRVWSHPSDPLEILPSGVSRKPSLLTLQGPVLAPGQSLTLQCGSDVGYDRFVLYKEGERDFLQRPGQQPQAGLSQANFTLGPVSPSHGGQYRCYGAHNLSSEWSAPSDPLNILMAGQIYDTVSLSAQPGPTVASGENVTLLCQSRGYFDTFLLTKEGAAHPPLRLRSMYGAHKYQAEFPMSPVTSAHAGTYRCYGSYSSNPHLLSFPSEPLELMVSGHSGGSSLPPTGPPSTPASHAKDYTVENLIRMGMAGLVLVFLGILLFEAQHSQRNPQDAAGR
Protocol: as §1

[11] = biological target: T11, recombinant human LILRB1-His (human, UniProt Q8NHL6 24-458); experiment: MSD ELISA, coated antigen, purified IgG1
T11 construct: Bought protein; also called LILRB1 protein
T11 sequence (Q8NHL6 24-458 limits assumed): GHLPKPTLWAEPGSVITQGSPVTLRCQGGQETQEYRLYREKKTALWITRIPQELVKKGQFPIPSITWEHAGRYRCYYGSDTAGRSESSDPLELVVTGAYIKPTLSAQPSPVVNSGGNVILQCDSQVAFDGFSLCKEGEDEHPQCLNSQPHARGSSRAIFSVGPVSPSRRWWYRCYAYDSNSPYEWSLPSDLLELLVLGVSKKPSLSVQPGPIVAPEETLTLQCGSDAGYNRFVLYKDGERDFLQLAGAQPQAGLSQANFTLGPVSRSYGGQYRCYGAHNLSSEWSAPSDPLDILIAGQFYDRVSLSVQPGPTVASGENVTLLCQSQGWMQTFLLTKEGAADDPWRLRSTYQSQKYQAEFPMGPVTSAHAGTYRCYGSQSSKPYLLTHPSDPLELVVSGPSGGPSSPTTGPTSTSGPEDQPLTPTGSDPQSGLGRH
Protocol: (§2) Recombinant human and cynomolgus LILRB1 proteins (R&D Systems, No. 8989-T2-050; ACROBiosystems, No. CDJ-C52H3) and recombinant human and cynomolgus LILRB2 proteins (ACROBiosystems, No. LI2-H5220; No. L12-C52H3) were diluted in PBS to 4 μg/mL and added to a multi-array 384-well high-binding plates (MSD, No. L21XA4) at 10 μL/well and incubated at 4° C. overnight. The plates were washed several times with Wash Buffer (0.05% Tween® 20 in PBS), using a microplate washer and then blocked with 70 μL/well of 5% BSA in PBS for 1 hour (h) at room temperature (RT) with shaking at 700 rpm. After blocking, 20 μL/well of anti-LILRB2/LILRB1 antibodies or isotype control were added to the plates, and the plates were sealed and incubated for 2 h at RT with shaking at 700 rpm. After primary antibody binding, plates were washed five times with 70 μL/well of Wash Buffer (0.05% Tween® 20 in PBS) using a microplate washer. Secondary detection antibody (SULFO-TAG™-labeled goat anti-human IgG antibody (MSD, No. R32AJ-1)) was diluted to 4 μg/mL in assay diluent (1% BSA in PBS) and 10 μL/well was added to plates and incubated at RT protected from light for 1 h, with shaking at 700 rpm. Following incubation, plates were washed five times with Wash Buffer, using a microplate washer. After removal of the final wash, 35 μL/well of MSD Gold Read Buffer B (MSD, No. R60AM-4) was added to all wells using a Multidrop combo washer/dispenser, and plates were read using MESO Sector 600MM instrument (MSD) within 5 minutes (min) after addition of Read Buffer. Signals as counts per minute (cpm) were recorded. EC₅₀ values were calculated using GraphPad Prism based on log concentration of the primary antibodies versus cpm values.

[12] = biological target: T12, recombinant human LILRB2-His (human, UniProt Q8N423 22-461, limits assumed); experiment: MSD ELISA, coated antigen, purified IgG1
T12 construct: Bought protein; also called LILRB2 protein
T12 sequence (Q8N423 22-461 limits assumed): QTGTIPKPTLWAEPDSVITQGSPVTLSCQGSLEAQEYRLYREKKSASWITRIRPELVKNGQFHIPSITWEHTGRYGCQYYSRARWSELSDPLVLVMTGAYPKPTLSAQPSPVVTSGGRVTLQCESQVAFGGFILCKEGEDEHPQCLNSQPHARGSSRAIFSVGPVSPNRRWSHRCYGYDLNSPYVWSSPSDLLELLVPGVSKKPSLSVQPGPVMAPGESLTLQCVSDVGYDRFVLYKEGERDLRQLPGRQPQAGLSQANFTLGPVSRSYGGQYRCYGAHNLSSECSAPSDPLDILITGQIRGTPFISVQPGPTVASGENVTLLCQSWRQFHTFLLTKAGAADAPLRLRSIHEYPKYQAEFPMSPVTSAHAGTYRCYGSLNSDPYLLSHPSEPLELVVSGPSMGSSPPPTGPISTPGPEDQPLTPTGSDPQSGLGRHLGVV
Protocol: as §2

[13] = biological target: T2, human LILRB2 on cells; experiment: flow cytometry, LILRB2-HEK293T cells, AF647-labelled antibody
Protocol: While LILRB2 expression is mostly restricted to myeloid cells, LILRB1 has a broader expression on immune cell subsets, including B cells, T cells and NK cells.
Frozen cells were removed from storage in vapor phase liquid nitrogen and thawed by gentle swirling in a water bath at 37° C., then resuspended in DMEM media with 10% FBS. Cells were placed in a 15 mL conical tube and centrifuged at 300×g for 5 min, then supernatant was removed. Cells were resuspended in DMEM+10% FBS at a cell density of 2×10⁵ cells/mL in a T75 flask for culturing, and incubated at 37° C., 5% CO₂ for 3 days before passaging. Cells were passaged when the cell density reached 1×10⁶ cell/mL. On the day of the assay, cells were centrifuged, then supernatant was removed. Cells were resuspended in Blocking Buffer B (FACS Buffer containing 10% FBS and 0.5 mg/mL human IgG1 (Athens Research, No. 16-16-090707-1M)+0.05% NaN₃, 5% (w/v)) in a 15 mL conical tube, then incubated at 4° C. for 30 min. […] Cells were incubated with antibodies at 4° C. for 1 h. Cells were washed twice in FACS Buffer (PBS containing 2 mM EDTA+1% FBS+0.05% NaN₃) and then stained with for 10 min with Zombie Violet™ fixable viability dye (BioLegend, No. 423114) at RT, washed with FACS Buffer and resuspend in 75 μL of FACS Buffer for acquisition on a BD FACSymphony™ or BD FACSCanto™ II flow cytometer (BD Biosciences), as described in Example 6.

MFI [1]	MFI [2]	MFI [3]	binding result [3]	MFI [4]	binding result [4]	MFI [5]	binding result [5]	MFI [6]	binding result [6]	MFI [7]	binding result [7]	MFI [8]	binding result [8]	MFI [9]	binding result [9]	MFI [10]	binding result [10]	EC50 [11]	EC50 [12]	Binder	other results
1060 MFI	5430 MFI	96.2 MFI	no binding (tested: 1 µg/mL)	30.1 MFI	no binding (tested: 1 µg/mL)	92 MFI	no binding (tested: 1 µg/mL)	210 MFI	no binding (tested: 1 µg/mL)	27.5 MFI	no binding (tested: 1 µg/mL)	136 MFI	no binding (tested: 1 µg/mL)	75.3 MFI	no binding (tested: 1 µg/mL)	140 MFI	no binding (tested: 1 µg/mL)	8.64 ng/mL	30.7 ng/mL	B21H1-23 (antibody, human IgG1, kappa, humanized IgG1/kappa, VH2+VL3) heavy: not shown light: DIVMTQSPSSVSASVGDRVTITCQASGNIYSFLAWYQQKPGKAPKLLIYTASNLETGVPSRFSGSGSGTDFTLTISSLQPEDFATYYCLGGLYSSDVSYAFGGGTKVVIKRTVAAPSVFIFPPSDEQLKSGTASVVCLLNNFYPREAKVQWKVDNALQSGNSQESVTEQDSKDSTYSLSSTLTLSKADYEKHKVYACEVTHQGLSSPVTKSFNRGEC	EC50 [13]: 1.63 ng/mL
1160 MFI	5630 MFI	97 MFI	no binding (tested: 1 µg/mL)	30.9 MFI	no binding (tested: 1 µg/mL)	92.8 MFI	no binding (tested: 1 µg/mL)	345 MFI	no binding (tested: 1 µg/mL)	27.1 MFI	no binding (tested: 1 µg/mL)	134 MFI	no binding (tested: 1 µg/mL)	74.6 MFI	no binding (tested: 1 µg/mL)	147 MFI	no binding (tested: 1 µg/mL)	9.19 ng/mL	28.4 ng/mL	B21H1-42 (antibody, human IgG1, kappa, humanized IgG1/kappa, VH4+VL2) heavy: not shown light: DIQMTQSPSSLSASVGDRVTITCQASGNIYSFLAWYQQKPGKVPKLLIYTASNLETGVPSRFSGSGSGTDYTLTISSLQSEDAATYYCLGGLYSSDVSYAFGGGTKVVIKRTVAAPSVFIFPPSDEQLKSGTASVVCLLNNFYPREAKVQWKVDNALQSGNSQESVTEQDSKDSTYSLSSTLTLSKADYEKHKVYACEVTHQGLSSPVTKSFNRGEC	EC50 [13]: 1.25 ng/mL
1000 MFI	5370 MFI	84.7 MFI	no binding (tested: 1 µg/mL)	29.1 MFI	no binding (tested: 1 µg/mL)	89.8 MFI	no binding (tested: 1 µg/mL)	201 MFI	no binding (tested: 1 µg/mL)	25.8 MFI	no binding (tested: 1 µg/mL)	130 MFI	no binding (tested: 1 µg/mL)	75.7 MFI	no binding (tested: 1 µg/mL)	142 MFI	no binding (tested: 1 µg/mL)	5.45 ng/mL	20.3 ng/mL	B21H1-13 (antibody, human IgG1, kappa, humanized IgG1/kappa, VH1+VL3) heavy: not shown light: DIVMTQSPSSVSASVGDRVTITCQASGNIYSFLAWYQQKPGKAPKLLIYTASNLETGVPSRFSGSGSGTDFTLTISSLQPEDFATYYCLGGLYSSDVSYAFGGGTKVVIKRTVAAPSVFIFPPSDEQLKSGTASVVCLLNNFYPREAKVQWKVDNALQSGNSQESVTEQDSKDSTYSLSSTLTLSKADYEKHKVYACEVTHQGLSSPVTKSFNRGEC	EC50 [13]: 2.23 ng/mL
914 MFI	5590 MFI	90.1 MFI	no binding (tested: 1 µg/mL)	29.9 MFI	no binding (tested: 1 µg/mL)	91.4 MFI	no binding (tested: 1 µg/mL)	295 MFI	no binding (tested: 1 µg/mL)	27.6 MFI	no binding (tested: 1 µg/mL)	132 MFI	no binding (tested: 1 µg/mL)	76.7 MFI	no binding (tested: 1 µg/mL)	140 MFI	no binding (tested: 1 µg/mL)	8.18 ng/mL	25.3 ng/mL	B21H1-22 (antibody, human IgG1, kappa, humanized IgG1/kappa, VH2+VL2) heavy: not shown light: DIQMTQSPSSLSASVGDRVTITCQASGNIYSFLAWYQQKPGKVPKLLIYTASNLETGVPSRFSGSGSGTDYTLTISSLQSEDAATYYCLGGLYSSDVSYAFGGGTKVVIKRTVAAPSVFIFPPSDEQLKSGTASVVCLLNNFYPREAKVQWKVDNALQSGNSQESVTEQDSKDSTYSLSSTLTLSKADYEKHKVYACEVTHQGLSSPVTKSFNRGEC	EC50 [13]: 1.07 ng/mL
